The source of these data is US20100291108A1 (published 2010).

Broadly, the koff is a measure of how fast the partners let go of each other. For orientation: kon means the rate constant with which the complex forms. In general, Kd refers to the equilibrium constant for the complex coming apart.

Assay [1] has as its target T1, IREM-1Δ6 deletion construct (human).
T1 construct: Deletion construct of IREM-1 expressed in 293 cells
T1 chain: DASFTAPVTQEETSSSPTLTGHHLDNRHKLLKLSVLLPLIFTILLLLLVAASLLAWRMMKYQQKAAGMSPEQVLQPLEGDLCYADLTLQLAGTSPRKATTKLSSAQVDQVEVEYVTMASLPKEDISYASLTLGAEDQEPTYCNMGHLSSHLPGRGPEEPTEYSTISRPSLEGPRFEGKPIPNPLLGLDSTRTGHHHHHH
The assay can be described thus: flow cytometry on 293 cells expressing the construct. (In general: A flow cytometer gives signals particle by particle.)

For assay [2], the target named is IREM-1Δ1 deletion construct (human). The description is as above.
Assay [3] addresses T2, IREM-1Δ2 deletion construct (human).
T2 construct: Deletion construct of IREM-1 expressed in 293 cells
T2 chain: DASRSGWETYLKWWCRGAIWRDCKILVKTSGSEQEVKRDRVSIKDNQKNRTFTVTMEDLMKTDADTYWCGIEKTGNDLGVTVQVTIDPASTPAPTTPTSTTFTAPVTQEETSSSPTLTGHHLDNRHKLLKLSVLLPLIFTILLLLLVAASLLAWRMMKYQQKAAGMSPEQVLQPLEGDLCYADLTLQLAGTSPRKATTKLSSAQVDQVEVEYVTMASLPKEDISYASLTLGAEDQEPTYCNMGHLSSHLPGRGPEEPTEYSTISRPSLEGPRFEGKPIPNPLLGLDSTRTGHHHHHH
Described as above.

The target in assay [4] is T3, IREM-1Δ3 deletion construct (human).
T3 construct: Deletion construct of IREM-1 expressed in 293 cells
T3 chain: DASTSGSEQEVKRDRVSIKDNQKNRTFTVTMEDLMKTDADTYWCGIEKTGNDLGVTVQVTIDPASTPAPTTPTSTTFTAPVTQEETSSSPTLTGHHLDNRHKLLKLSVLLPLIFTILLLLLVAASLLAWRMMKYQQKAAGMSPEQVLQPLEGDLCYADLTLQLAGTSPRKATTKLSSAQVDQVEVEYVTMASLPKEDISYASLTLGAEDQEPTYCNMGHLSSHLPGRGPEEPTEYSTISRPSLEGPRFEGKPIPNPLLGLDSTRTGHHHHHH
The description is as above.

Assay [5] concerns the target T4, IREM-1Δ4 deletion construct (human).
T4 construct: Deletion construct of IREM-1 expressed in 293 cells
T4 chain: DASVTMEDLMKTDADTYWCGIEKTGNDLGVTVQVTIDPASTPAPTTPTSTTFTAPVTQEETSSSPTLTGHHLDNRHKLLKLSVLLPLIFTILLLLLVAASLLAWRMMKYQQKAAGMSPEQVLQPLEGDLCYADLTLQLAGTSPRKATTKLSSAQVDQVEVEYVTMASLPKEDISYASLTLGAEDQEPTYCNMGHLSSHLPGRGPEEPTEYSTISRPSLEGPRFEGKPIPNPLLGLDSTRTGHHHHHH
The description is as above.

The target of assay [6] is T5, IREM-1Δ5 deletion construct (human).
T5 construct: Deletion construct of IREM-1 expressed in 293 cells
T5 chain: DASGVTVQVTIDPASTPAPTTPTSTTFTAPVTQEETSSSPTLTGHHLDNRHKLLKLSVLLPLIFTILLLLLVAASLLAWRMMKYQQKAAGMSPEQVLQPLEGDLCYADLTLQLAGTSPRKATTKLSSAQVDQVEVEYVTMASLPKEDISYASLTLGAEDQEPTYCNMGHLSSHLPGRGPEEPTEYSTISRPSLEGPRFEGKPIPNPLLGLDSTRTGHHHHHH
The assay is described as above.

Assay [7] has as its target T6, IREM-1-ECD-V5His recombinant protein (human, UniProt Q8TDQ1 20-156).
T6 construct: Produced in HEK-293 cells and purified on a Ni column; also called IREM-1 V5-6His protein; recombinant IREM-1 protein containing the complete extracellular domain; not shown: C-terminal V5-His tag
The assay can be described thus: SPR (Biacore), mAb captured on the chip, antigen in solution, 25 C. On the technique in general: SPR reads the build-up and loss of mass on a sensor chip optically.

The target of assay [8] is T6, IREM-1-ECD-V5His recombinant protein. The experiment in a line: SPR (Biacore), mAb captured on the chip, antigen in solution, 25 C; KD = kd/ka.
Experimental: Kinetic rate constants (kₐ and kd) were determined using surface plasmon resonance and affinities (KD) were then calculated from the rate constants (kd/kₐ). Surface plasmon resonance was carried out on a BlAcore system (Biacore International AB, Uppsala, Sweden). […] Each of 5 concentrations was tested twice except the highest concentration which was tested 5 times in total, two times with a short dissociation of 300 seconds followed by three times with a dissociation of 60 minutes. The data sets from the long dissociation experiments were globally fit with the shorter association experiments to determine binding constants for the interactions. The analysis was carried out in HBS, pH 7.4 buffer at 25° C.
The target of assay [9] is human IREM-1 (full-length, on cells) (human, UniProt Q8TDQ1 20-290). The assay can be described thus: cell-based or functional assay.

B1: chimeric anti-IREM-1 monoclonal antibody D12 (antibody, human IgG1, V domains shown)
VH: EIQLQQSGAELVRPGTSVKVSCKASGYAFTNYLIEWVKQRPGQGLEWIGVINPGSGGSYYNEKFKGKTTLTADKSSSTAYMQLSSLAFDDSAVYFCARSESNYSYYYAMDYWGQGTSVIVSS
VL: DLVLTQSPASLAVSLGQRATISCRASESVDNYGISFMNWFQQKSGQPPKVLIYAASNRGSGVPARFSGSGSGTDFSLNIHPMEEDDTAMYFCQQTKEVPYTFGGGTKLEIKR
notes: No cleavage site is stated; also called mAb D12; clone #D12
For B1, the binding result is “no binding” in [1]; “binds” in assay [2]; “no binding” in assay [3]; “no binding” in assay [4]; “no binding” in assay [5]; “no binding” in assay [6]. Further, the koff in assay [7] stood at 0.00072 s⁻¹. In addition, in assay [7], the kon came to 255000 M⁻¹ s⁻¹. For the same molecule, the Kd in assay [8] turned out to be 2.8 nM.

B2: chimeric anti-IREM-1 monoclonal antibody 871.1 (antibody, human IgG1, V domains shown)
VH: EVKLVESGGGLVQPGGSLSLSCAASGFTFTDYYMSWVRQPPGMAPEWLGFIRNKANGYTTEYSASVKGRFTISRDDSQSILYLQMNALRAEDSATYYCAREDYGSSWGYYAMDCWGQGTSVTVSS
VL: DIVMTQSQKFMSTSVGDRVSVTCKASQNVDTNVAWYQQKPGQSPKALLYSASYRHSGVPDRFTGSGSETDFTLTITNVQSEDLAEYFCQQYNSFPLTFGSGTKLEIRR
notes: The CDC assays use an IgG2b isotype control, so the murine form may have been used there; No cleavage site is stated; also called mAb 871.1; VL1VH1
Consider B2, for which the “CDC (complement-dependent cytotoxicity) EC50 on 293 cells expressing IREM-1” value in assay [9] is approximately 10 ng/mL. For the same molecule, in assay [9], the “CDC EC50 on AML cell line HL-60” value lay in the range of 1970 to 3840 ng/mL. For the same molecule, the “CDC EC50 on stage M1 AML patient sample” value in [9] amounted to 0.0062 ng/mL. In addition, the binding result is “no binding” in assay [1]; “binds” in [2]; “no binding” in assay [3]; “no binding” in [4]; “no binding” in assay [5]; “no binding” in assay [6]. For the same molecule, the kon in assay [7] was found to be 228000 M⁻¹ s⁻¹.

B3: chimeric anti-IREM-1 monoclonal antibody B11 (antibody, human IgG1, V domains shown)
VH: QIQLVQSGPELEKPGETVKISCKASGYTFTNYPMHWVKQAPGKGLKWMGWINTYSGVPTYADDFKGRFAFSLETSASTAYLQINNLKNEDMATYFCARMDYYSNGFNYWGQGTTLTVSS
VL: DVLMTQTPLSLPVSLGDQASISCRSSQSIVHSNGNTYLEWYLQKPGQSPKLLIYKVSNRFSGVPDRFSGSGSGTDFTLKISRVEAEDLGVYYCFQGSHVPWTFGGGTKLEIKR
notes: No cleavage site is stated; also called mAb B11; VL2VH2
For B3, the binding result in assay [1] is “no binding”; in assay [2], “binds”; in assay [3] it was “no binding”; in assay [4] it was “no binding”; in assay [5] it was “no binding”; in assay [6] it was “no binding”. In addition, the koff in assay [7] worked out at 0.00066 s⁻¹. The kon in [7] worked out at 282000 M⁻¹ s⁻¹. Also, in assay [8], the Kd was found to be 2.3 nM.
